Molecular target: free tubulin (bovine) (UniProt Q6B856)
Assay: tubulin recruitment assay

Chain of UniProt Q6B856 (Q6B856 whole entry, looked up): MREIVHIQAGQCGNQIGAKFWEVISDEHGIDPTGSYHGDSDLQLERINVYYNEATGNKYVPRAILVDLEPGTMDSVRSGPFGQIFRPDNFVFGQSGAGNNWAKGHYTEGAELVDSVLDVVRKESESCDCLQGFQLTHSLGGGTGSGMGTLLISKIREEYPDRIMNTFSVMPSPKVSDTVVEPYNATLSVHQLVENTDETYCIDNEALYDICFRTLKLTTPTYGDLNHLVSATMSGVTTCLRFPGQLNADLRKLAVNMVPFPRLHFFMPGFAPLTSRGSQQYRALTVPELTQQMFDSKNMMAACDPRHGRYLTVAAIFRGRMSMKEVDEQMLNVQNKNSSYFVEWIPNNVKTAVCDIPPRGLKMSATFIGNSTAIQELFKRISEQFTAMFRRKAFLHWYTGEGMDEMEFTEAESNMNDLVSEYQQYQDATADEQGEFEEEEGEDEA

percent of stabilised microtubules with recruited free tubulin | percent of pre-polymerised microtubules with recruited free tubulin | Substance
9% | – | MAP6d1-Δ2-35 (from UniProt Q14BB9 1-191) (natural protein)
– | 57% | MAP6d1 (from UniProt Q14BB9 1-191) (natural protein)

From publication doi:10.1101/2025.02.17.638590
